Assay results published in doi:10.1101/2020.05.27.119552.

Biological target: dHtt-eGFP fusion protein (Drosophila Huntingtin with a C-terminal eGFP tag) (Drosophila)
Assay: affinity purification with mass spectrometry

## CG8134/dHap40 (Drosophila HAP40), endogenous ~40 kDa protein (from UniProt Q9VXR6 1-345) (natural protein)
  stoichiometry N: 1 molar ratio
